Results from patent publication US20240263208A1, “CYTOCHROME P450 ENZYME” (HYPHA DISCOVERY LTD., priority 2021, published 2024).
Residue numbers refer to the chain shown, from its start. Names may count otherwise.

How the values were obtained:
Format in all cases: biochemical
[1] = Oxidase activity testing against efavirenz; settings: substrate Efavirenz
Description: (§1) Lyophilised material of recombinant P450, ferredoxin and ferredoxin reductase proteins was made as described in Example 4 and reconstituted in high purity water to the original volume. Biocatalysis was performed with shaking incubation at 27° C. in the following conditions: 100 mM potassium phosphate pH 8.0, 5 mM MgCl2 (both present in the reconstituted enzyme preparation) and 0.1 mg/ml substrate compound such as ambroxide (Sigma-Aldrich, UK), carbamazepine (Sigma-Aldrich, UK), diclofenac (Sigma-Aldrich, UK), tivantinib (MedChemtronica, Sweden), clarithromycin (Tokyo Chemical Industry, Japan), sclareol (Sigma-Aldrich, UK), celecoxib (LC Laboratories, USA), buparvaquone (Sigma-Aldrich, UK), BIRB796 (MedChemExpress, USA), vanoxerine (CiVentiChem, USA), valsartan (Tokyo Chemical Industry, Japan), ruxolitinib (LC Laboratories, USA), perindopril (Selleckchem, USA), solifenacin (Key Organics, UK), 7-ethoxycoumarin (Tokyo Chemical Industry, Japan), tofacitinib (LC Laboratories, USA), ebastine (Key Organics, UK), efavirenz (Key Organics, UK), propanalol (Sigma-Aldrich, UK) and tolbutamide (Key Organics, UK).
(§2) Concentrations of P450, ferredoxin and ferredoxin reductase were as extracted (Example 4). Reactions were initiated by addition of 10× stock of cofactor mixture (50 mM G6P, 10 mM NADP+, 10 UN/ml G6PDH) to provide a final volume of e.g., 10 μl to 90 μl for 100 μl total reaction volumes. After 16-20 hours, reactions were extracted with an equal volume of acetonitrile, centrifuged to remove precipitated proteins and conversion assessed by UPLC-MS analysis.
(§3) UPLC Data were Obtained as Follows: • Column: Acquity UPLC BEH Shield RP18 1.7 μm 2.1 mm i.d. 50 mm length • Solvents: H2O, B: Acetonitrile, both with 0.1% Formic acid • Flow rate: 1.0 ml/min • Detector: Waters Acquity UPLC PDA (UV-Vis detection) and Waters Acquity UPLC QDA (MS)
(§4) Representative results for the % conversions of various substrates to products by enzymes with mutations at position T109 or L198 and double mutants at T109 and 1129/L198 are shown in Table 4 below.

[2] = Oxidase activity testing against BIRB796; settings: substrate BIRB796
Description: as §1, §2, §3, §4

[3] = Oxidase activity testing against ebastine; settings: substrate Ebastine
Description: as §1, §2, §3, §4

[4] = Oxidase activity testing against buparvaquone; settings: substrate Buparvaquone
Description: as §1, §2, §3, §4

[5] = Oxidase activity testing against vanoxerine; settings: substrate Vanoxerine
Description: as §1, §2, §3, §4

[6] = Oxidase activity testing against solifenacin; settings: substrate Solifenacin
Description: as §1, §2, §3, §4

[7] = Oxidase activity testing against sclareol; settings: substrate Sclareol, UPLC-MS UV or MS peak areas
Description: as §1, §2, §3, §4

[8] = Oxidase activity testing against celecoxib; settings: substrate Celecoxib
Description: as §1, §2, §3, §4

[9] = Oxidase activity testing against valsartan; settings: substrate Valsartan
Description: as §1, §2, §3, §4

[10] = Oxidase activity testing against clarithromycin; settings: substrate Clarithromycin
Description: as §1, §2, §3, §4

[11] = Oxidase activity testing, lyophilised recombinant P450/ferredoxin SeuF08/ferredoxin reductase SCF15A against ambroxide; settings: for +16 Da (1.50 min) 253 m/z / +16 Da (1.60 min) 253 m/z / +16 Da (2.04 min) 253 m/z: oxidised ambroxide product; for +16 Da (1.50 min) 253 m/z / +16 Da (1.60 min) 253 m/z / +16 Da (2.04 min) 253 m/z / Ambroxide (2.22 min) 237 m/z: relative MS peak area; for reaction products from ambroxide (in words): products at 1.50, 1.61 and 2.04 minutes; for Ambroxide (2.22 min) 237 m/z: remaining substrate, 0.1 mg/ml ambroxide, 27° C., 16-20 hours; for Average % conversion: substrate ambroxide, relative MS peak areas
Description: as §1, §2, §3
(§5) To confirm the identities of reaction products where known, their chromatographic retention time, mass and ultraviolet spectra were compared with those of authentic metabolite standards.
Representative results for the % conversions of ambroxide to oxidised (+16 Da) products for single point mutants at position T109 are shown in Table 2 below.

[12] = Oxidase activity testing against tolbutamide; settings: for Average % conversion: substrate Tolbutamide
Description: as §1, §2, §3, §4

[13] = Oxidase activity testing against tofacitinib; settings: substrate Tofacitinib
Description: as §1, §2, §3, §4

[14] = Oxidase activity testing against perindopril; settings: substrate Perindopril
Description: as §1, §2, §3, §4

[15] = Oxidase activity testing against propanalol; settings: substrate Propanalol
Description: as §1, §2, §3, §4

[16] = Oxidase activity testing against 7-ethoxycoumarin; settings: substrate 7-ethoxycoumarin
Description: as §1, §2, §3, §4

[17] = Oxidase activity testing against ruxolitinib; settings: substrate Ruxolitinib
Description: as §1, §2, §3, §4

[18] = Oxidase activity testing against carbamazepine
Description: as §1, §2, §3, §5
Representative results for the % conversions of carbamazepine to oxidised (+16 Da) products for single point mutants at position L198 are shown in Table 3 below.

B1: SeuC10M25: P450SeuC10 with T109F mutation, SEQ ID NO: 54 (protein)
chain: MKIGTTHLTRLRGLSMTELTDITGPAAQAETVAFPQDRTCPYHPPTGYDPLRDGRPLSRVTLYDGREVWLVTAQATARALLADPRLSTDRRRDGFPVPTPRFAAGRDRFLALLGLDDPEHHRQRRLLIPSFTLKRATAQRPWIQRIVDELLDAMIARGPVADLVSAFALPVPSMVICELLGVPYADHEFFEEQSRRLLRGPTGADTTDARDRLEAYLGDLIDAKAKEAEPGDGILDDLVHNRLRAGELDRSVLVSLAVILLVAGHETTANMISLGTYTLLQHPERLAELRADPSLLPAVVEELLRMLSIAEGLQRLALEDIEIDGITIRAGEGVLFSTSVINRDTAVYEDPDDLDFHRADRHHVAFGFGIHQCLGQNLARAELEIALGSLFTRLPGLRLAAPAEEIPFKPGDTVQGMLELPVTW
modifications: SeuC10M25
For B1, the Average % conversion ([1]; Batch 1) was 1.5%, the Average % conversion ([2]; Batch 1) was 13.9% and the Average % conversion ([3]; Batch 1) was 12.7%. For the same molecule, the Average % conversion ([4]; Batch 1) was 19.4%, the Average % conversion ([5]; Batch 1) was 58% and the Average % conversion ([6]; Batch 1) was 2.9%. The Average % conversion ([7]; Batch 1) was 55.7%, the Average % conversion ([8]; Batch 1) was 10.4% and the Average % conversion ([9]; Batch 1) was 15.5%. The Average % conversion ([10]; Batch 1) was 0%, the “+16 Da (1.50 min) 253 m/z” value [11] was 52.0% and the “+16 Da (1.60 min) 253 m/z” value [11] was 15.2%. For the same molecule, the “+16 Da (2.04 min) 253 m/z” value [11] was 13.9%, the “reaction products from ambroxide (in words)” value [11] was “highest yields of the products at 1.61 and 2.04 minutes” and the “Ambroxide (2.22 min) 237 m/z” value [11] was 18.9%. The Average % conversion [11] was 81.1%, the Average % conversion ([12]; Batch 1) was 28.2% and the Average % conversion ([13]; Batch 1) was 21.4%. It also gave an Average % conversion ([14]; Batch 1) of 23.5%, an Average % conversion ([15]; Batch 1) of 0% and an Average % conversion ([16]; Batch 1) of 17.5%. For the same molecule, the Average % conversion ([17]; Batch 1) was 79.8%.

B2: SeuC10: native CYP450 from Streptomyces eurythermus NRRL 2539, SEQ ID NO: 2 (protein, listed as Streptomyces eurythermus)
chain: B1 chain with F109T
For B2, the Average % conversion ([1]; Batch 1) was 0%, the Average % conversion ([1]; Batch 2) was 0% and the Average % conversion ([2]; Batch 1) was 83.1%. For the same molecule, the Average % conversion ([2]; Batch 2) was 78.8%, the Average % conversion ([3]; Batch 1) was 8.8% and the Average % conversion ([3]; Batch 2) was 4.5%. For the same molecule, the Average % conversion ([4]; Batch 1) was 23.5%, the Average % conversion ([4]; Batch 2) was 32.9% and the Average % conversion ([5]; Batch 1) was 75.8%. For the same molecule, the Average % conversion ([5]; Batch 2) was 65.8%, the Average % conversion ([6]; Batch 1) was 5.3% and the Average % conversion ([6]; Batch 2) was 7.2%. For the same molecule, the Average % conversion ([7]; Batch 1) was 38.5%, the Average % conversion ([7]; Batch 2) was 35.5% and the Average % conversion ([8]; Batch 1) was 29.4%. For the same molecule, the Average % conversion ([8]; Batch 2) was 22.2%, the Average % conversion ([9]; Batch 1) was 20.1% and the Average % conversion ([9]; Batch 2) was 20.8%. The Average % conversion ([10]; Batch 1) was 0%, the Average % conversion ([10]; Batch 2) was 0% and the “+16 Da (1.50 min) 253 m/z” value [11] was 72.2%. For the same molecule, the “+16 Da (1.60 min) 253 m/z” value [11] was 5.0%, the “+16 Da (2.04 min) 253 m/z” value [11] was 0.0% and the “reaction products from ambroxide (in words)” value [11] was “produce the product at 1.50 as the major product”. For the same molecule, the “Ambroxide (2.22 min) 237 m/z” value [11] was 22.8%, the Average % conversion [11] was 77.2% and the Average % conversion ([12]; Batch 1) was 32.2%. It also gave an Average % conversion ([12]; Batch 2) of 37.7%, an Average % conversion ([13]; Batch 1) of 36.7% and an Average % conversion ([13]; Batch 2) of 51.6%. The “+16 Da (1.18 min) 253 m/z” value ([18]; 2-hydroxycarbamazepine, relative MS peak area) was 0.0%, the “+16 Da (1.14 min) 253 m/z” value ([18]; carbamazepine epoxide, relative MS peak area) was 43.6% and the “reaction products from carbamazepine (in words)” value ([18]; new product at 1.18 minutes identified as 2-hydroxycarbamazepine, epoxide at 1.14 minutes) was “carbamazepine epoxide as the only reaction product”. The “Parent (1.31 min) 237 m/z” value ([18]; remaining carbamazepine, relative MS peak area, 0.1 mg/ml, 27° C., 16-20 hours) was 56.4%, the Average % conversion ([18]; substrate carbamazepine, relative MS peak areas) was 43.6% and the Average % conversion ([14]; Batch 1) was 30.9%. For the same molecule, the Average % conversion ([14]; Batch 2) was 32.7%, the Average % conversion ([15]; Batch 1) was 0% and the Average % conversion ([15]; Batch 2) was 0%. The Average % conversion ([16]; Batch 1) was 22.9%, the Average % conversion ([16]; Batch 2) was 23.3% and the Average % conversion ([17]; Batch 1) was 80.9%. It also gave an Average % conversion ([17]; Batch 2) of 98.6%.

B3: SeuC10M2: P450SeuC10 with T109A mutation, SEQ ID NO: 8 (protein)
chain: B1 chain with F109A
modifications: SeuC10M2
For B3, the Average % conversion ([1]; Batch 1) was 0.9%, the Average % conversion ([2]; Batch 1) was 29.5% and the Average % conversion ([3]; Batch 1) was 6.8%. For the same molecule, the Average % conversion ([4]; Batch 1) was 28.7%, the Average % conversion ([5]; Batch 1) was 87.2% and the Average % conversion ([6]; Batch 1) was 7.2%. The Average % conversion ([7]; Batch 1) was 36.5%, the Average % conversion ([8]; Batch 1) was 24.7% and the Average % conversion ([9]; Batch 1) was 17.6%. The Average % conversion ([10]; Batch 1) was 0%, the “+16 Da (1.50 min) 253 m/z” value [11] was 85.1% and the “+16 Da (1.60 min) 253 m/z” value [11] was 7.0%. For the same molecule, the “+16 Da (2.04 min) 253 m/z” value [11] was 0.0%, the “Ambroxide (2.22 min) 237 m/z” value [11] was 6.8% and the Average % conversion [11] was 93.2%. For the same molecule, the “conversion of tolbutamide compared to wild-type (in words)” value [12] was “significantly increased conversion”, the Average % conversion ([12]; Batch 1) was 52.3% and the Average % conversion ([13]; Batch 1) was 47.1%. The Average % conversion ([14]; Batch 1) was 30.7%, the Average % conversion ([15]; Batch 1) was 0% and the Average % conversion ([16]; Batch 1) was 32.4%. It also gave an Average % conversion ([17]; Batch 1) of 92.8%.
